T1: CD20 (human, UniProt P11836 1-297)
T1 construct: whole, on cells; Target on B-lymphoma cells in flow cytometry; also called CD20 antigen; B-lymphocyte-restricted differentiation antigen
T1 sequence (looked up): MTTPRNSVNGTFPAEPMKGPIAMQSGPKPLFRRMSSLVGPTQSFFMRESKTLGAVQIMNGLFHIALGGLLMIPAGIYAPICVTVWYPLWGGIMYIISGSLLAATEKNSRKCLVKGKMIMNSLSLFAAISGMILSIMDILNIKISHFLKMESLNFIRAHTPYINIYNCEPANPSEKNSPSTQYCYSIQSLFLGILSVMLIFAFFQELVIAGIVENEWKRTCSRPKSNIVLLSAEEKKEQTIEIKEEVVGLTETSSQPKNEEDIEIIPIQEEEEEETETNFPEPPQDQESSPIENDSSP


Tests used:
CD20 [1] = molecular target: T1, CD20; assay: flow cytometry on SUDHL4 (SU-DHL4) cells, MFI against antibody concentration
CD20 [2] = molecular target: T1, CD20; assay: flow cytometry on Ramos cells (CD20+ B lymphoma), MFI against antibody concentration
Description: Binding to B-lymphoma cells. The binding of the antibodies was investigated in CD20⁺ B lymphoma cell lines (Ramos and SKW6.4) and analyzed on flow cytometry. The cells in PBS containing 1% fetal bovine serum at 2×10⁵/well on microplate were incubated on ice for 1 hr with antibodies of interest at different concentrations. The cells are washed, re-suspended in the PBS buffer, and incubated with the detecting goat anti-hIgG-Fcγ-PE on ice for 30 min. The cells are washed and subjected to analysis on FACS.

[3] = molecular target: T2, FcγRIIIA recombinant protein (UniProt P08637 17-208, limits assumed); assay: SPR, Biacore T200; antibody captured on anti-human Fab chip, FcγRIIIA injected (12.5-200 nM), single cycle kinetics, 1:1 model
T2 construct: also called FcRIIIA
Description: (§1) FcγRIIIA was transfected into HEK-293 cell line to express recombinant protein. The secreted FcγRIIIA recombinant protein was purified and then diluted to serial concentration in HBS-EP buffer (200 nM, 100 nM, 50 nM, 25 nM, and 12.5 nM). […] A serial titration of FcγRIIIA was injected and bound at the flow rate of […]. Single cycle kinetics data was fitted into 1:1 binding model using Biacore T200 evaluation software to measure the equilibrium constant (Ka/Kd).

[4] = molecular target: T2, FcγRIIIA recombinant protein; assay: SPR, Biacore T200; antibody captured on anti-human Fab chip, FcγRIIIA injected (12.5-200 nM), single cycle kinetics, 1:1 model; Rituxan reference, not glycoengineered; upper end of the range
Description: as §1

[5] = molecular target: T2, FcγRIIIA recombinant protein; assay: >
Description: as §1

[6] = molecular target: T2, FcγRIIIA recombinant protein; assay: SPR as above; category letter explained in the note of Table 4
Description: as §1

T2 sequence (P08637 17-208 limits assumed): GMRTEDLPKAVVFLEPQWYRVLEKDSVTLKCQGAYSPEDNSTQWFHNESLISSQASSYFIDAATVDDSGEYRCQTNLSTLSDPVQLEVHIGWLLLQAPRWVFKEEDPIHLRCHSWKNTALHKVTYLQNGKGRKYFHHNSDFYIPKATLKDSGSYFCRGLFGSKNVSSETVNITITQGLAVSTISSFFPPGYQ

Binder | EC50 (read off the curve) (CD20 [1]) [µg/mL] | Kd [3] [nM] | Fold (increase against Rituxan) [6] [fold] | other results
Rituximab (antibody, human IgG1, kappa, heterogeneous N-glycans at Asn-297 of the Fc (more than 50 glycoforms; greater than 90% of N-glycans are fucosylated), Chimeric anti-CD20 IgG made in CHO cells, purchased from Genentech; DrugBank DB00073; also called Rituxan; RTX) heavy: not shown light: QIVLSQSPAILSASPGEKVTMTCRASSSVSYIHWFQQKPGSSPKPWIYATSNLASGVPVRFSGSGSGTSYSLTISRVEAEDAATYYCQQWTSNPPTFGGGTKLEIKRTVAAPSVFIFPPSDEQLKSGTASVVCLLNNFYPREAKVQWKVDNALQSGNSQESVTEQDSKDSTYSLSSTLTLSKADYEKHKVYACEVTHQGLSSPVTKSFNRGEC | ~0.6 | 100 |  | EC50 (read off the curve) (CD20 [2]): ~0.6 µg/mL; Kd [4]: ≤ 300 nM
anti-CD20 GAb101 (antibody, human IgG1, kappa, homogeneous N-glycan at Asn-297, no core fucose: glycan-101 (Sia2Gal2GlcNAc2Man3GlcNAc) transferred onto the GlcNAc of GAb201; 2,6 sialic acid linkage, the text gives them the other way round) heavy: not shown light: QIVLSQSPAILSASPGEKVTMTCRASSSVSYIHWFQQKPGSSPKPWIYATSNLASGVPVRFSGSGSGTSYSLTISRVEAEDAATYYCQQWTSNPPTFGGGTKLEIKRTVAAPSVFIFPPSDEQLKSGTASVVCLLNNFYPREAKVQWKVDNALQSGNSQESVTEQDSKDSTYSLSSTLTLSKADYEKHKVYACEVTHQGLSSPVTKSFNRGEC | ~0.7 |  |  | Fold (increase against Rituxan) [5]: 30 fold
anti-CD20 GAb104 (antibody, human IgG1, kappa, homogeneous N-glycan at Asn-297, no core fucose: glycan-104 (Gal2GlcNAc2Man3GlcNAc) transferred onto the GlcNAc of GAb201, the text gives them the other way round) heavy: not shown light: QIVLSQSPAILSASPGEKVTMTCRASSSVSYIHWFQQKPGSSPKPWIYATSNLASGVPVRFSGSGSGTSYSLTISRVEAEDAATYYCQQWTSNPPTFGGGTKLEIKRTVAAPSVFIFPPSDEQLKSGTASVVCLLNNFYPREAKVQWKVDNALQSGNSQESVTEQDSKDSTYSLSSTLTLSKADYEKHKVYACEVTHQGLSSPVTKSFNRGEC |  |  | > 30 | 

Further lines, with some results ahead:

EC50 (read off the curve) (CD20 [1]) [µg/mL] | Kd [3] [nM] | Fold (increase against Rituxan) [6] [fold] | Binder | other results
 | 7 to 30 |  | anti-CD20 GAb106 (antibody, human IgG1, kappa, homogeneous N-glycan at Asn-297, no core fucose: glycan-106 (GalGlcNAcMan3GlcNAc) transferred onto the GlcNAc of GAb201, the text gives them the other way round) heavy: not shown light: QIVLSQSPAILSASPGEKVTMTCRASSSVSYIHWFQQKPGSSPKPWIYATSNLASGVPVRFSGSGSGTSYSLTISRVEAEDAATYYCQQWTSNPPTFGGGTKLEIKRTVAAPSVFIFPPSDEQLKSGTASVVCLLNNFYPREAKVQWKVDNALQSGNSQESVTEQDSKDSTYSLSSTLTLSKADYEKHKVYACEVTHQGLSSPVTKSFNRGEC | 
 |  | > 30 | anti-CD20 GAb105 (antibody, human IgG1, kappa, homogeneous N-glycan at Asn-297, no core fucose: glycan-105 (GalGlcNAc2Man3GlcNAc) transferred onto the GlcNAc of GAb201, the text gives them the other way round) heavy: not shown light: QIVLSQSPAILSASPGEKVTMTCRASSSVSYIHWFQQKPGSSPKPWIYATSNLASGVPVRFSGSGSGTSYSLTISRVEAEDAATYYCQQWTSNPPTFGGGTKLEIKRTVAAPSVFIFPPSDEQLKSGTASVVCLLNNFYPREAKVQWKVDNALQSGNSQESVTEQDSKDSTYSLSSTLTLSKADYEKHKVYACEVTHQGLSSPVTKSFNRGEC | 
 |  | > 30 | anti-CD20 GAb102 (antibody, human IgG1, kappa, homogeneous N-glycan at Asn-297, no core fucose: glycan-102 (SiaGal2GlcNAc2Man3GlcNAc) transferred onto the GlcNAc of GAb201, the text gives them the other way round) heavy: not shown light: QIVLSQSPAILSASPGEKVTMTCRASSSVSYIHWFQQKPGSSPKPWIYATSNLASGVPVRFSGSGSGTSYSLTISRVEAEDAATYYCQQWTSNPPTFGGGTKLEIKRTVAAPSVFIFPPSDEQLKSGTASVVCLLNNFYPREAKVQWKVDNALQSGNSQESVTEQDSKDSTYSLSSTLTLSKADYEKHKVYACEVTHQGLSSPVTKSFNRGEC | 
